Results published in the MegaScale stability set (Tsuboyama et al. 2023).

B1: EHEE_rd2_0601 (parent)
chain: TYTYKLTDEEASRRAEDEWRNRGYDVRVRNNNGTWEVEVR

Variants of: B1
Experiment: folding stability dG (cDNA display proteolysis); higher = more stable
Conditions: PBS, room temperature

Row | Variant | folding stability dG [kcal/mol]
1 | TYTYKLTDEEASRRAEDEWRNRGYDVRVRINNGTWEVEVR [N30I] | 1.35
2 | TYTYKLTDEEASRRAEDEWRNRGYDVRVRWNNGTWEVEVR [N30W] | 1.8
3 | TYTYKLTDEEASRRAEDEWRNRGYDVRVRDNNGTWEVEVR [N30D] | 1
4 | TYTYKLTDEEASRRAEDEWRNRGYDVRVRSNNGTWEVEVR [N30S] | 1.1
5 | TYTYKLTDEEASRRAEDEWRNRGYDVRVRGNNGTWEVEVR [N30G] | 0.639
6 | TYTYKLTDEEASRRAEDEWRNRGYDVRVRRNNGTWEVEVR [N30R] | 1.23
7 | TYTYKLTDEEASRRAEDEWRNRGYDVRVRVNNGTWEVEVR [N30V] | 1.43
8 | TYTYKLTDEEASRRAEDEWRNRGYDVRVRMNNGTWEVEVR [N30M] | 1.4
9 | TYTYKLTDEEASRRAEDEWRNRGYDVRVVNNNGTWEVEVR [R29V] | 1.67
10 | TYTYKLTDEEASRRAEDEWRNRGYDVRVTNNNGTWEVEVR [R29T] | 1.86
11 | TYTYKLTDEEASRRAEDEWRNRGYDVRVWNNNGTWEVEVR [R29W] | 1.56
12 | TYTYKLTDEEASRRAEDEWRNRGYDVRVYNNNGTWEVEVR [R29Y] | 1.74
13 | TYTYKLTDEEASRRAEDEWRNRGYDVRVRNNNGTWYVEVR [E36Y] | 1.98
14 | TYTYKLTDEEASRRAEDEWRNRGYDVRVRNNNGTWNVEVR [E36N] | 0.173
15 | TYTYKLTDEEASRRAEDEWRNRGYDVRVRNNNGTWDVEVR [E36D] | 0.292
16 | TYTYKLTDEEASRRAEDEWRNRGYDVRVRNNNGTWMVEVR [E36M] | 1.19
17 | TYTYKLTDEEASRRAEDEWRNRGYDVRVRNNNGTWQVEVR [E36Q] | 0.744
18 | TYTYKLTDEEASRRAEDEWRNRGYDVRVRNNNGTWVVEVR [E36V] | 1.58
19 | TYTYKLTDEEASRRAEDEWRNRGYDVRVRNNNGTWCVEVR [E36C] | 1.26
20 | TYTYKLTDEEASRRAEDEWRNRGYDVRVRNNNGTWAVEVR [E36A] | 0.137
21 | TYTYKLTDEEASRRAEDEWRNRGYDVRVRNNNGTWSVEVR [E36S] | 0.611

Row | Variant | folding stability dG [kcal/mol]
22 | TYTYKLTDEEASRRAEDEWRNRGYDVRVRNNNGTWFVEVR [E36F] | 1.75
23 | TYTYKLTDEEASRRAEDEWRNRGYDVRVRNNNGTWIVEVR [E36I] | 1.93
24 | TYTYKLTDEEASRRAEDEWRNRGYDVRVRNNNGTWLVEVR [E36L] | 1.6
25 | TYTYKLTDEEASRRAEDEWRNRGYDVRVRNNNGTWWVEVR [E36W] | 1.83
26 | TYTYKLTDEEASRRAEDEWRNRGYDVRVRNNNGTWHVEVR [E36H] | 0.826
27 | TYTYKLTDEEASRRAEDEWRNRGYDVRVRNNNGTWRVEVR [E36R] | -0.245
28 | TYTYKLTDEEASRRAEDEWRNRGYDVRVRNNNGTWTVEVR [E36T] | 1.27
29 | TYTYKLTDEEASRRAEDEWRNRGYDVRVRNNNGIWEVEVR [T34I] | 2
30 | TYTYKLTDEEASRRAEDEWRNRGYDVRVRNNNGFWEVEVR [T34F] | 1.62
31 | TYTYKLTDEEASRRAEDEWRNRGYDVRVRNNNGVWEVEVR [T34V] | 2.01
32 | TYTYKLTDEEASRRAEDEWRNRGYDVRVRNNNGNWEVEVR [T34N] | 0.99
33 | TYTYKLTDEEASRRAEDEWRNRGYDVRVRNNNGAWEVEVR [T34A] | 1.17
34 | TYTYKLTDEEASRRAEDEWRNRGYDVRVRNNNGQWEVEVR [T34Q] | 1.48
35 | TYTYKLTDEEASRRAEDEWRNRGYDVRVRNNNGSWEVEVR [T34S] | 1.28
36 | TYTYKLTDEEASRRAEDEWRNRGYDVRVRNNNGMWEVEVR [T34M] | 1.58
37 | TYTYKLTDEEASRRAEDEWRNRGYDVRVRNNNGGWEVEVR [T34G] | 0.674
38 | TYTYKLTDEEASRRAEDEWRNRGYDVRVRNNNGLWEVEVR [T34L] | 1.48
39 | TYTYKLTDEEASRRAEDEWRNRGYDVRVRNNNGHWEVEVR [T34H] | 1.2
40 | TYTYKLTDEEASRRAEDEWRNRGYDVRVRNNNGYWEVEVR [T34Y] | 1.66
41 | TYTYKLTDEEASRRAEDEWRNRGYDVRVRNNNGKWEVEVR [T34K] | 0.867
42 | TYTYKLTDEEASRRAEDEWRNRGYDVRVRNNNGWWEVEVR [T34W] | 1.54

Row | Variant | folding stability dG [kcal/mol]
43 | TYTYKLTDEEASRRAEDEWRNRGYDVRVRNNNGEWEVEVR [T34E] | 1.28
44 | TYTYKLTDEEASRRAEDEWRNRGYDVRVRNNNGRWEVEVR [T34R] | 0.865
45 | TYTYKLTDEEASRRAEDEWRNRGYDVRVRNNNGDWEVEVR [T34D] | 0.864
46 | TYTYKLTDEEASRRAEDEWRNRGYDVRVRNYNGTWEVEVR [N31Y] | 1.4
47 | TYTYKLTDEEASRRAEDEWRNRGYDVRVRNINGTWEVEVR [N31I] | 1.76
48 | TYTYKLTDEEASRRAEDEWRNRGYDVRVRNHNGTWEVEVR [N31H] | 1.32
49 | TYTYKLTDEEASRRAEDEWRNRGYDVRVRNLNGTWEVEVR [N31L] | 1.51
50 | TYTYKLTDEEASRRAEDEWRNRGYDVRVRNFNGTWEVEVR [N31F] | 1.42
51 | TYTYKLTDEEASRRAEDEWRNRGYDVRVRNQNGTWEVEVR [N31Q] | 1.08
52 | TYTYKLTDEEASRRAEDEWRNRGYDVRVRNKNGTWEVEVR [N31K] | 1.16
53 | TYTYKLTDEEASRRAEDEWRNRGYDVRVRNTNGTWEVEVR [N31T] | 1.21
54 | TYTYKLTDEEASRRAEDEWRNRGYDVRVRNRNGTWEVEVR [N31R] | 1.34
55 | TYTYKLTDEEASRRAEDEWRNRGYDVRVRNMNGTWEVEVR [N31M] | 1.31
56 | TYTYKLTDEEASRRAEDEWRNRGYDVRVRNSNGTWEVEVR [N31S] | 1.1
57 | TYTYKLTDEEASRRAEDEWRNRGYDVRVRNGNGTWEVEVR [N31G] | 0.546
58 | TYTYKLTDEEASRRAEDEWRNRGYDVRVRNENGTWEVEVR [N31E] | 1.12
59 | TYTYKLTDEEASRRAEDEWRNRGYDVRVRNPNGTWEVEVR [N31P] | -0.345
60 | TYTYKLTDEEASRRAEDEWRNRGYDVRVRNDNGTWEVEVR [N31D] | 1.06
61 | TYTYKLTDEEASRRAEDEWRNRGYDVRVRNANGTWEVEVR [N31A] | 0.996
62 | TYTYKLTDEEASRRAEDEWRNRGYDVRVRNWNGTWEVEVR [N31W] | 1.02
63 | TYTYKLTDEEASRRAEDEWRNRGYDVRVRNVNGTWEVEVR [N31V] | 1.83
